Data: paper PMC3394726 (PLoS ONE, 2012)

Target: T1, human complement C1q (human, UniProt P02745;P02746;P02747)
T1 construct: source: purified from human plasma; endogenous, normal human serum (NHS); copies: + +
Assay: ELISA; SMSB3 or SMSB4 coated at 10 µg/ml; serial dilutions of normal human serum (0-100%) for 10, 20, 40 or 60 min at 37°C; bound complement factors detected with specific antibodies
Conditions: one partner purified

T1 sequence (P02745 23-245, chain 1 of 3): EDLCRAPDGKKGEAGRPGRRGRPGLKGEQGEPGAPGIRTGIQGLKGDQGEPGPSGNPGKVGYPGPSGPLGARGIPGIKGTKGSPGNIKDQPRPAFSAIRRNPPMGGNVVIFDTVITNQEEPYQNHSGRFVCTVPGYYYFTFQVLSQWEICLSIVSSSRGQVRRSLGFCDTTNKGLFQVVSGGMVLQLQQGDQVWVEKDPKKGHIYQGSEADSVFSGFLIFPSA
T1 sequence (P02746 28-253, chain 2 of 3): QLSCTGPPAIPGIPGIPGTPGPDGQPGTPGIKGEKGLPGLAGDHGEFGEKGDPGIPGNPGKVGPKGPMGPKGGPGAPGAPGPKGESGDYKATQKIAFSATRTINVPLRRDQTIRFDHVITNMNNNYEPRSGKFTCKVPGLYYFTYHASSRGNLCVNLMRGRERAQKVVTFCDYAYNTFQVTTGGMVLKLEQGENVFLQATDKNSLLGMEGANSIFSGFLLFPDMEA
T1 sequence (P02747 29-245, chain 3 of 3): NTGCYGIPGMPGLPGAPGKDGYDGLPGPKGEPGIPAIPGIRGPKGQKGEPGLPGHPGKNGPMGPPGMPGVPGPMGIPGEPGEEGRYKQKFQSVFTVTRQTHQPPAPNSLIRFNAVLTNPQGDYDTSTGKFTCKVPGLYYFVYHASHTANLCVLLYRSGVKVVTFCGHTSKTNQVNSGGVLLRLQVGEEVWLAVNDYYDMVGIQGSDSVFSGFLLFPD

B1: scabies mite serpin SMSB4, wild type (natural protein)
chain: KPQHHSQSHQQPVLASDPNEDPLKALNLLQQQKQFTEHFFQQNNEKLNLLGGQEIIKCFDVNFTSNVLNNIDHISKIMIDGSRHFGLRLFQILNLFEPKTSSPGLVYSPISVWSTLILTYLGSDGVTEQELSQKLKLNQLPKPLVALAYRSLKWWKDFNVLKLMQNHTDATQVCSANKLYINDHLLVKDCFRTIFGDEIEMKSFSSRPQESLSEINDWVRVQTQGHIPNLLGPESISSNTNIVMINAVYFKSFWAQQFDSSKTKKQRFYVSMNEELEADMMTMDSVSVMYGISEELRASAVEIPYSNPDYSFLIILPDITRSLDSMIRTLTWNKIQLLLQNMYDDEVKLMIPKFRSEQEFELAGPLFSLGIKKLFDPRYANLNSIFMNSNNSRVALDSVIHKSFISVDEEGTEAAAATAVIFARSGRPAFPTEFIADRPFLYIIRDVSSNQLLFIGTVRRPYASQAIVA
notes: also called SMB4; SMSB4/wt
  binding result: binds
